Assay results: patent US20210292396A1

Legend:
Assay in all cases: cell-based or functional assay
[1] = target: Env of HIV isolate T255-34 (clade AG) (HIV)
[2] = target: Env of HIV isolate CNE8 (clade AE) (HIV)
[3] = target: Env of HIV isolate 242-14 (clade AG) (HIV)
[4] = target: Env of HIV isolate 6095.v1.c10 (clade ACD) (HIV)
[5] = target: Env of HIV isolate T250-4 (clade AG) (HIV)
[6] = target: HIV Env of isolate R1166.c1 (HIV)
[7] = target: Env of HIV isolate 3817.v2.c59 (clade CD) (HIV)
[8] = target: Env of HIV isolate BB201.B42 (clade A) (HIV)
[9] = target: HIV Env of isolate CNE10 (HIV)
[10] = target: Env of HIV isolate ZM106.9 (clade C) (HIV)
[11] = target: HIV Env of isolate CNE12 (HIV)
[12] = target: HIV Env of isolate 191821.E6.1 (HIV)
[13] = target: Env of HIV isolate SS1196.01 (clade B) (HIV)
[14] = target: HIV Env of isolate T250-4 (HIV)
[15] = target: HIV Env of isolate CNE4 (HIV)
[16] = target: HIV Env of isolate CNE40 (HIV)
[17] = target: Env of HIV isolate CNE3 (clade AE) (HIV)
[18] = target: HIV Env of isolate 3365.v2.c20 (HIV)
[19] = target: HIV Env of isolate BB539.2B13 (HIV)
[20] = target: HIV Env of isolate 6405.v4.c34 (HIV)
[21] = target: Env of HIV isolate KNH1209.18 (clade A) (HIV)
[22] = target: Env of HIV isolate CNE5 (clade AE) (HIV)
[23] = target: Env of HIV isolate HO86.8 (clade B) (HIV)
[24] = target: Env of HIV isolate CNE40 (clade BC) (HIV)
[25] = target: Env of HIV isolate A03349M1.vrc4a (clade D) (HIV)
[26] = target: Env of HIV isolate X2278.C2.B6 (clade B) (HIV)
[27] = target: HIV Env of isolate 3817.v2.c59 (HIV)
[28] = target: Env of HIV isolate T251-18 (clade AG) (HIV)
[29] = target: HIV Env of isolate TZA125.17 (HIV)
[30] = target: Env of HIV isolate CNE31 (clade C) (HIV)
[31] = target: HIV Env of isolate BR025.9 (HIV)
[32] = target: Env of HIV isolate QH0515.01 (clade B) (HIV)
[33] = target: HIV Env of isolate CNE53 (HIV)
[34] = target: HIV Env of isolate CAP256.206.C9 (HIV)
[35] = target: Env of HIV isolate Bal.01 (clade B) (HIV)
[36] = target: Env of HIV isolate BI369.9A (clade A) (HIV)
[37] = target: HIV Env of isolate T33-7 (HIV)
[38] = target: Env of HIV isolate CH117.4 (clade BC) (HIV)
[39] = target: HIV Env of isolate 0815.v3.c3 (HIV)
[40] = target: Env of HIV isolate UG024.2 (clade D) (HIV)
[41] = target: HIV Env of isolate 928-28 (HIV)
[42] = target: HIV Env of isolate UG037.8 (HIV)
[43] = target: HIV Env of isolate BJOX025000.01.1 (HIV)
[44] = target: HIV Env of isolate ZM53.12 (HIV)
[45] = target: Env of HIV isolate 235-47 (clade AG) (HIV)
[46] = target: HIV Env of isolate CNE19 (HIV)
[47] = target: HIV Env of isolate 620345.c1 (HIV)
[48] = target: Env of HIV isolate Q769.h5 (clade A) (HIV)
[49] = target: Env of HIV isolate UG037.8 (clade A) (HIV)
[50] = target: HIV Env of isolate 16936-2.21 (HIV)
[51] = target: Env of HIV isolate DU123.06 (clade C) (HIV)
[52] = target: HIV Env of isolate SF162.LS (HIV)
[53] = target: Env of HIV isolate CNE55 (clade AE) (HIV)

PGT121 (antibody)
IC50, pseudovirus neutralization [1]: 2.04 µg/mL
IC50, pseudovirus neutralization [2]: > 50 µg/mL
IC50, pseudovirus neutralization [3]: > 50 µg/mL
IC50, pseudovirus neutralization [4]: 1.98 µg/mL
IC50, pseudovirus neutralization [5]: 0.00433 µg/mL
IC80 [6]: > 50 µg/mL
IC50, pseudovirus neutralization [7]: 22.2 µg/mL
IC50, pseudovirus neutralization [8]: 0.00933 µg/mL
IC80 [9]: 0.048 µg/mL
IC50, pseudovirus neutralization [10]: 0.0127 µg/mL
IC80 [11]: 0.0347 µg/mL
IC80, pseudovirus neutralization [12]: > 50 µg/mL
IC50, pseudovirus neutralization [13]: 0.0123 µg/mL
IC80 [14]: 0.0123 µg/mL
IC80 [15]: 25.3 µg/mL
IC80, pseudovirus neutralization [16]: 1.21 µg/mL
IC50, pseudovirus neutralization [17]: > 50 µg/mL
IC80 [18]: 0.639 µg/mL
IC80 [19]: > 50 µg/mL
IC80, pseudovirus neutralization [20]: 0.136 µg/mL
IC50, pseudovirus neutralization [21]: 0.0117 µg/mL
IC50, pseudovirus neutralization [22]: > 50 µg/mL
IC50, pseudovirus neutralization [23]: > 50 µg/mL
IC50, pseudovirus neutralization [24]: 0.281 µg/mL
IC50, pseudovirus neutralization [25]: 0.0747 µg/mL
IC50, pseudovirus neutralization [26]: 0.026 µg/mL
IC80, pseudovirus neutralization [27]: > 50 µg/mL
IC50, pseudovirus neutralization [28]: 3.05 µg/mL
IC80, pseudovirus neutralization [29]: 9.43 µg/mL
IC50, pseudovirus neutralization [30]: 0.654 µg/mL
IC80, pseudovirus neutralization [31]: 0.0253 µg/mL
IC50, pseudovirus neutralization [32]: 2.83 µg/mL
IC80, pseudovirus neutralization [33]: 0.0723 µg/mL
IC80, pseudovirus neutralization [34]: 0.046 µg/mL
IC50, pseudovirus neutralization [35]: 0.0113 µg/mL
IC50, pseudovirus neutralization [36]: 0.0283 µg/mL
IC80 [37]: > 50 µg/mL
IC50, pseudovirus neutralization [38]: > 50 µg/mL
IC80 [39]: 0.112 µg/mL
IC50, pseudovirus neutralization [40]: > 50 µg/mL
IC80 [41]: 29.9 µg/mL
IC80 [42]: 0.307 µg/mL
IC80 [43]: > 50 µg/mL
IC80, pseudovirus neutralization [44]: 0.00767 µg/mL
IC50, pseudovirus neutralization [45]: 0.132 µg/mL
IC80, pseudovirus neutralization [46]: 0.041 µg/mL
IC80 [47]: > 50 µg/mL
IC50, pseudovirus neutralization [48]: > 50 µg/mL
IC50, pseudovirus neutralization [49]: 0.092 µg/mL
IC80, pseudovirus neutralization [50]: 0.024 µg/mL
IC50, pseudovirus neutralization [51]: 0.0477 µg/mL
IC80 [52]: 0.021 µg/mL
IC50, pseudovirus neutralization [53]: > 50 µg/mL
